Laboratory results reported in patent US20240383994A1 (CHIA TAI TIANQING PHARMACEUTICAL GROUP, published 2024).

These binders were tested against human CD40 (hCD40), full length, on cells (human, UniProt P25942 21-277) (assay: cell-based or functional assay).

IC50, inhibition of Ramos cell apoptosis induced by CD40L and IL-4	Inhibition, % of Ramos cell apoptosis at 0.0128 ng/mL	Inhibition, % of Ramos cell apoptosis at 0.064 ng/mL	Inhibition, % of Ramos cell apoptosis at 0.32 ng/mL	Inhibition, % of Ramos cell apoptosis at 1.6 ng/mL	Inhibition, % of Ramos cell apoptosis at 8 ng/mL	Inhibition, % of Ramos cell apoptosis at 40 ng/mL	Inhibition, % of Ramos cell apoptosis at 200 ng/mL	Inhibition, % of Ramos cell apoptosis at 1000 ng/mL	Binder
0.0119 nM	-10%	-8%	16%	31%	90%	90%	84%	70%	Chi-B03 (antibody, human IgG4 S228P, kappa, V domains shown) VH: EVKLVESGGGLVQPGGSLRLSCATSGFTFSDFYMEWVRQPPGKRLEWIAASRDKANDYTTEYSPSVQGRFIVSRDSSQSILYLQMNALRTEDTAIYYCARDVGRSYALDYWGQGTSVTVSS VL: QVVLTQSPAIMSASPGEKVTMTCSASSSVTYMHWYQQKSGTSPKRWIYVTSKLASGVPTRFSGSGSGTSYSLTISSMEAEDAATYYCQQWSRKPPTFGAGTKLELKR
0.0301 nM	-24%	-33%	-12%	2%	55%	93%	96%	93%	Chi-B01 (antibody, human IgG4 S228P, kappa, V domains shown, also called chimeric B01) VH: QIQLVQSGPELKKPGETVKISCKASGYTFTNYGMNWVKQAPGKGLKWMGWINPYTGEPTYADDFKGRFAFSVETSASTAYLQINNLKNEDTATYFCARKPPFDYWGQGTTLTVSS VL: DIVMTQAAPSVPVTPGESVSISCRSSKSLLHSNGNTYLYWFLQRPGQSPQILIYRVSNLASGVPDRFSGSGSGTAFTLRISRVEAEDVGVYYCMQHVEYPFTFGSGTKLEIKR
0.0275 nM	-18%	-16%	-5%	5%	59%	92%	88%	75%	Chi-B02 (antibody, human IgG4 S228P, kappa, V domains shown) VH: EVQLQQSGPELVKPGASVKMSCKASGYTFTSYVMYWVKQKPGQGLEWIGYVNPYNDGTNYNEKFKGKATLTSDKSSSTAYMELSSLTSEDSAVYYCARGAMDYWGQGTSVTVSS VL: DIVMTQAAPSVPVTPGESVSISCRSSKSLLHSQGNTYLYWFLQRPGQSPQILIYRVSNLASGVPDRFSGSGSGTAFTLRISRVEAEDVGVYYCMQHVEYPFTFGSGTKLEIKR

Each binder was assayed against T1, hCD40-His protein (Acro, Cat. No.: CD0-H5228) (human, UniProt P25942 21-193) (assay: BLI (Fortebio Octet RED96e), antibody captured on AHC sensor, antigen 1.56-100 nM, 1:1 model).
T1 construct: Bought protein; also called human CD40 antigen; not shown: His tag
Method: The affinity of humanized anti-CD40 antibodies to an hCD40-His protein (Acro, Cat. No.: CD0-H5228) and a CynoCD40-His protein (Acro, Cat. No.: CD0-C52H6) was detected by a ForteBio molecular interaction system. Firstly, an AHC biosensor (Fortebio, Cat. No.: 18-5060) was activated, and then immersed in an anti-CD40 antibody solution at a final concentration of 5 μg/mL to capture the antibodies. Serially 2-fold diluted hCD40-His protein and CynoCD40-His protein in a final concentration range of 1.56 nM-100 nM were then […] the AHC biosensor. The response signals were detected in real time on a Fortebio molecular interaction system (Fortebio Octet RED96e) to give association and dissociation curves. After the completion of dissociation in each cycle, the AHC biosensor was regenerated for the next capture; the procedure was repeated until the affinity of the different antibodies for CD40 was determined. The resulting data were analyzed by Fortebio Data Analysis 11.0 software using a 1:1 (Langmuir) binding model to determine the Kₐ (Kₒₙ) and Kd (Kdis) values, and the dissociation constant KD was calculated by KD=Kd/Kₐ. See www.fortebio.com for more detailed detection procedures and related information.

Kd	koff	kon	Binder
59.9 nM	0.0484 s⁻¹	808000 M⁻¹ s⁻¹	hzA01-1.2 (antibody, human IgG4 S228P, kappa, V domains shown, Humanized A01; also called hzA01L1 + hzA01H2) VH: QVQLVESGGGVVQPGRSLRLSCAASGFSLPTSGVHWVRQAPGKGLEWVAVIWAGGDTNYADSVKGRFTISRDNSKNTVYLQMNSLRAEDTAVYYCLGHGHFDVWGQGTLVTVSS VL: DIQMTQSPSSLSASVGDRVTITCRSSQSLVHSSGNTYLQWYQQKPGKAPGLLIYKVSNRFSGVPSRFSGSGSGTDFTLTISSLQPEDFATYYCSQTTHVPWTFGQGTKVEIKR
113 nM	0.101 s⁻¹	893000 M⁻¹ s⁻¹	hzA01-2.2 (antibody, human IgG4 S228P, kappa, V domains shown, Humanized A01; also called hzA01L2 + hzA01H2) VH: QVQLVESGGGVVQPGRSLRLSCAASGFSLPTSGVHWVRQAPGKGLEWVAVIWAGGDTNYADSVKGRFTISRDNSKNTVYLQMNSLRAEDTAVYYCLGHGHFDVWGQGTLVTVSS VL: EIVLTQSPGTLSLSPGERATLSCRSSQSLVHSSGNTYLQWYQQKPGQAPRLLIYKVSNRFSGIPDRFSGSGSGTDFTLTISRLEPEDFAVYYCSQTTHVPWTFGQGTKVEIKR
7.66 nM	0.00246 s⁻¹	321000 M⁻¹ s⁻¹	Chi-B01 (antibody, human IgG4 S228P, kappa, V domains shown, also called chimeric B01) VH: QIQLVQSGPELKKPGETVKISCKASGYTFTNYGMNWVKQAPGKGLKWMGWINPYTGEPTYADDFKGRFAFSVETSASTAYLQINNLKNEDTATYFCARKPPFDYWGQGTTLTVSS VL: DIVMTQAAPSVPVTPGESVSISCRSSKSLLHSNGNTYLYWFLQRPGQSPQILIYRVSNLASGVPDRFSGSGSGTAFTLRISRVEAEDVGVYYCMQHVEYPFTFGSGTKLEIKR
